{"source": "paper PMC3894725", "about": "(Nature, 2012)", "proteins": {"B1": {"name": "human pyruvate kinase M2 (His6-hPKM2) (enzyme)", "chain": "not shown"}}, "molecular_target": "the molecule itself", "assay": "crystal structure"}
{"protein": "B1", "values": [{"measurement": "stoichiometry N", "result": 4}]}
